1 substance from patent publication US20210277067A1 can be followed below.

The assay has as its target HCMV pentameric complex gH/gL/pUL128/pUL130/pUL131A (wild type Pentamer) (HCMV strain Merlin) (UniProt Q6SW67). Kind of assay: method not stated.

On to “8I21 with HCDR3 Trp105 mutated to alanine (Fab)”, for which the fold decrease in binding affinity (against unmutated 8I21) was above 150 fold.
